One block for each binder: values may come before it.
Target: bovine brain Arp2/3 complex (bovine, UniProt P61157 1-418; A7MB62 1-394; Q58CQ2 1-372; Q3MHR7 1-300; Q3T035 1-178; Q148J6 …)
Experiment: ITC

Kd: 2.2 µM
B1: Cort_(18-76) (domain or fragment)
chain: GADDWETDPDFVNDVSEKEQRWGAKTVQGSGHQEHINIHKLRENVFQEHQTLKEKELET

Kd: 5.4 µM
B2: Cort_(1-33) (domain or fragment)
chain: MWKASAGHAVSITQDDGGADDWETDPDFVNDVS

Kd: 4.5 µM
B3: Cort_(1-76), cortactin N-terminal acidic domain (NTA, residues 1-76) (domain or fragment)
chain: MWKASAGHAVSITQDDGGADDWETDPDFVNDVSEKEQRWGAKTVQGSGHQEHINIHKLRENVFQEHQTLKEKELET
